Measured values as given in patent US20040208867A1, “Protein having active sulfate transporter activity and method for detecting canceration of tissue” (NATIONAL INSTITUTE OF ADVANCED INDUSTRIAL SCIENCE AND …, priority 2002, published 2004).

How the values were obtained:
[1] = substrate: Nc1ncnc2c1ncn2[C@@H]1O[C@H](COP(=O)(O)OS(=O)(=O)O)[C@@H](OP(=O)(O)O)[C@H]1O; test: cells, lysate or membranes; details: other: transport of PAPS (35S-labeled), P100 fraction, pH 7.5, PAPS concentration varied, FIG. 3, FIG. 4, 37.0 °C
[2] = transport activity of the P100 fraction for labeled nucleotide sugars instead of PAPS; type: biochemical, yeast strain W303a; details: labeled nucleotide sugars instead of 35S-labeled PAPS (FIG. 2)
Protocol: Five minutes thereafter, 10 volumes of an ice-cooled reaction terminating solution (20 mM Tris-HCl buffer (pH 7.5) containing 0.25 M sucrose, 5 mM MgCl2 and 150 mM KCl) was added thereto, and the mixture was filtered through a nitrocellulose filter of 0.45 μm in pore size. This filter was washed with 10 ml of the iced-cooled reaction terminating solution, and the radioactivity of this filter was measured using a liquid scintillation counter (FIG. 1). Respective fractions prepared using a transformant of a yeast strain W303a transformed with YER352 GAPII alone were used as negative controls.

B1: human STP3 (GenBank accession No. XM_059770), protein having active sulfate (PAPS) transport activity, SEQ ID NO:2 (Homo sapiens) (protein)
chain: MDARWWAVVVLAAFPSLGAGGETPEAPPESWTQLWFFRFVVNAAGYASFMVPGYLLVQYFRRKNYLETGRGLCFPLVKACVFGNEPKASDEVPLAPRTEAAETTPMWQALKLLFCATGLQVSYLTWGVLQERVMTRSYGATATSPGERFTDSQFLVLMNRVLALIVAGLSCVLCKQPRHGAPMYRYSFASLSNVLSSWCQYEALKFVSFPTQVLAKASKVIPVMLMGKLVSRRSYEHWEYLTATLISIGVSMFLLSSGPEPRSSPATTLSGLILLAGYIAFDSFTSNWQDALFAYKMSSVQMMFGVNFFSCLFTVGSLLEQGALLEGTRFMGRHSEFAAHALLLSICSACGQLFIFYTIGQFGAAVFTIIMTLRQAFAILLSCLLYGHTVTVVGGLGVAVVFAALLLRVYARGRLKQRGKKAVPVESPVQKV
[1]
  Km: 0.7 µM
[2]
  activity to specifically transport substances other than PAPS: substantially has no activity
